Results from US20260337278 (published 2026).
Substitutions are numbered along the chain they refer to. Read-outs that look alike come from different tables or passages of the source.

B1: SI-95X26 (antibody)
chain 1: not shown
chain 2: DILMTQSPSSMSVSLGDTVSITCHSSQDINSNIGWLQQRPGKSFKGLIYHGTNLDDEVPSRFSGSGSGADYSLTISSLESEDFADYYCVQYAQFPWTFGGGTKLEIKGGGGSGGGGSGGGGSDVQLQESGPSLVKPSQSLSLTCTVTGYSITSDFAWNWIRQFPGNKLEWMGYISYSGNTRYNPSLKSRISITRDTSKNQFFLQLNSVTIEDTATYYCVTAGRGFPYWGQGTLVTVSASGSGSGGGGGSGGGGSGGGGSDIQMTQSPSSLSASVGDRVTITCRSSQNIVHSNGNTYLDWYQQTPGKAPKLLIYKVSNRFSGVPSRFSGSGSGTDFTFTISSLQPEDIATYYCFQYSHVPWTFGQGTKLQITRTVAAPSVFIFPPSDEQLKSGTASVVCLLNNFYPREAKVQWKVDNALQSGNSQESVTEQDSKDSTYSLSSTLTLSKADYEKHKVYACEVTHQGLSSPVTKSFNRGEC
B2: SI-95X20 (antibody)
chain 1: not shown
chain 2: DIQMTQSPSSLSASVGDRVTITCRSSQNIVHSNGNTYLDWYQQTPGKAPKLLIYKVSNRFSGVPSRFSGSGSGTDFTFTISSLQPEDIATYYCFQYSHVPWTFGQGTKLQITRTVAAPSVFIFPPSDEQLKSGTASVVCLLNNFYPREAKVQWKVDNALQSGNSQESVTEQDSKDSTYSLSSTLTLSKADYEKHKVYACEVTHQGLSSPVTKSFNRGEC
B3: SI-95X22 (antibody)
chain 1: not shown
chain 2: B2 chain 2
B4: SI-95X21 (antibody)
chain 1: not shown
chain 2: B2 chain 2
B5: SI-95X17 (antibody)
chain 1: not shown
chain 2: B2 chain 2
B6: SI-95X2 (antibody)
chain 1: not shown
chain 2: B2 chain 2
B7: SI-95X19 (antibody)
chain 1: not shown
chain 2: B2 chain 2
B8: SI-95X55 (antibody)
chain 1: not shown
chain 2: DIVMTQSPSSVSLSLGDRVTITCHSSQDINSNIGWLQQKPGKAFKGLIYHGTNLDDGVPSRFSGSGSGADYTLTISSLQAEDFATYYCVQYAQFPWTFGPGTKLEIKRTVAAPSVFIFPPSDEQLKSGTASVVCLLNNFYPREAKVQWKVDNALQSGNSQESVTEQDSKDSTYSLSSTLTLSKADYEKHKVYACEVTHQGLSSPVTKSFNRGEC
B9: ABT-806 V7 (antibody, V domains shown)
VH: QVQLQESGPSLVKPSQTLSLTCTVSGYSITSDFAWNWIRQFPGRKLEWMGYISYSGNTRYNPSLKSRFTISRDTSKNQFYLKLRSVTIADTAVYYCVTAGRGFPYWGQGTLVTVSS
VL: DIQMTQSPSSVSASVGDRVTITCHSSQDINSNIGWLQQKPGKAPKGLIYHGTNLDDGVPSRFSGSGSGADYTLTISSLQPEDFATYYCVQYAQFPWTFGQGTKVEIKR
B10: ABT-806 V3 (antibody, V domains shown)
VH: QVQLQESGPGLVKPSQSLSLTCTVSGYSITSDFAWNWIRQPPGKGLEWIGYISYSGNTRYNPSLKSRVTISRDTSKNQFSLQLNSVTAEDTAVYYCVTAGRGFPYWGQGTLVTVSS
VL: B9 VL with Q3V, A13L, V15L, P44F, P80A, Q100P, V104L
B11: ABT-806 V8 (antibody, V domains shown)
VH: B9 VH
VL: B9 VL with Q3V, V11L, A13V, V15P, Q79E, T85V
B12: ABT-806 V2 (antibody, V domains shown)
VH: B10 VH
VL: B9 VL with Q3V, V11L, A13V, V15P, Q79E, T85V
B13: ABT-806 V6 (antibody, V domains shown)
VH: B10 VH with P41A, I49V, V68F, S80Y
VL: B9 VL with Q3V, A13L, V15L, P44F, P80A, Q100P, V104L
B14: ABT-806 V5 (antibody, V domains shown)
VH: B10 VH with P41A, I49V, V68F, S80Y
VL: B9 VL with Q3V, V11L, A13V, V15P, Q79E, T85V
B15: ABT-806 V1 (antibody, V domains shown)
VH: B10 VH
VL: B9 VL
B16: ABT-806 V4 (antibody, V domains shown)
VH: B10 VH with P41A, I49V, V68F, S80Y
VL: B9 VL
B17: ABT-806 V9 (antibody, V domains shown)
VH: B9 VH
VL: B9 VL with Q3V, A13L, V15L, P44F, P80A, Q100P, V104L
B18: SI-95X23 (antibody)
chain 1: not shown
chain 2: DVQLQESGPSLVKPSQSLSLTCTVTGYSITSDFAWNWIRQFPGNKLEWMGYISYSGNTRYNPSLKSRISITRDTSKNQFFLQLNSVTIEDTATYYCVTAGRGFPYWGQGTLVTVSAGGGGSGGGGSGGGGSDILMTQSPSSMSVSLGDTVSITCHSSQDINSNIGWLQQRPGKSFKGLIYHGTNLDDEVPSRFSGSGSGADYSLTISSLESEDFADYYCVQYAQFPWTFGGGTKLEIKSGSGSGGGGGSGGGGSGGGGSDIQMTQSPSSLSASVGDRVTITCRSSQNIVHSNGNTYLDWYQQTPGKAPKLLIYKVSNRFSGVPSRFSGSGSGTDFTFTISSLQPEDIATYYCFQYSHVPWTFGQGTKLQITRTVAAPSVFIFPPSDEQLKSGTASVVCLLNNFYPREAKVQWKVDNALQSGNSQESVTEQDSKDSTYSLSSTLTLSKADYEKHKVYACEVTHQGLSSPVTKSFNRGEC
B19: SI-95X41 (antibody)
chain 1: not shown
chain 2: DILMTQSPSSMSVSLGDTVSITCHSSQDINSNIGWLQQRPGKSFKGLIYHGTNLDDEVPSRFSGSGSGADYSLTISSLESEDFADYYCVQYAQFPWTFGGGTKLEIKRTVAAPSVFIFPPSDEQLKSGTASVVCLLNNFYPREAKVQWKVDNALQSGNSQESVTEQDSKDSTYSLSSTLTLSKADYEKHKVYACEVTHQGLSSPVTKSFNRGEC

Key:
Assay in all cases: BLI
[1] = molecular target: T1, EGFR (wild-type, His-tagged or biotinylated) (human, UniProt P00533)
EGFRvIII [2] = molecular target: T2, EGFRvIII (human, UniProt P00533)
EGFRvIII [3] = molecular target: T2, EGFRvIII; remark: listed apart in the source
[4] = molecular target: T1, EGFR (wild-type, His-tagged or …); remark: listed apart in the source
EGFRvIII [5] = molecular target: T2, EGFRvIII; remark: listed apart in the source

Kd [1] | Kd (EGFRvIII [2]) | Kd (EGFRvIII [5]) | also measured | Binder
9.35 nM | 0.281 nM | – | – | B1
4.73 nM | 0.839 nM | – | – | B2
6.1 nM | 0.834 nM | – | – | B3
5.56 nM | 0.654 nM | – | – | B4
6.02 nM | 0.642 nM | – | – | B5
5.53 nM | 1.15 nM | – | – | B6
5.01 nM | 0.676 nM | – | – | B7
– | – | – | Kd (EGFRvIII [3]): 7.67 nM; binding result [4]: no binding | B8
– | – | 37.8 nM | – | B9
– | – | 15.4 nM | – | B10
– | – | 31.9 nM | – | B11
– | – | 26.6 nM | – | B12
– | – | 18.4 nM | – | B13
– | – | 30.7 nM | – | B14
– | – | 29.5 nM | – | B15
– | – | 23.2 nM | – | B16
– | – | 16.1 nM | – | B17
6.17 nM | 1.45 nM | – | – | B18
– | – | – | Kd (EGFRvIII [3]): 15.9 nM; binding result [4]: no binding | B19
